# In patent US20040001839A1, “Multimers - isolated molecules comprising epitopes containing sulfated moieties, antibodies to such epitopes, and uses thereof” (priority 2000, published 2004):
# How the values were obtained:
# [1] = biological target: T1, natural human platelet derived glycocalicin (Homo sapiens, UniProt P07359); assay: Western blot on natural platelet glycocalicin; type: binding; conditions: semi-purified human platelet derived glycocalicin
# T1 construct: glycocalicin (soluble, extracellular fragment of GPIbα); from tissue; host or cells: human platelets
# Protocol: (§1) The DNA fragment encoding for glycocalicin (GC, amino acid 1 to amino acid 493 of GPIbα) was cloned into an IPTG inducible prokaryotic vector cassette. E. coli (BL21 DE3) cells harboring the newly constructed plasmid were grown at 37° C. to O.D. 0.7-0.8, than at 37° C. for 3 hours for in the presence of IPTG for induction.
# (§2) SDS-polyacrylamide gel loaded either with semi-purified human platelet derived glycocalicin (“GC”) or with E. coli cell lysates (“total”) derived from induced and non-induced cells were analyzed. Western blot analysis was performed with biotinylated Y1-scFv, polyclonal rabbit anti-human glycocalicin antibody, commercially available mouse anti-human CD42 monoclonal antibody (SZ2 Immunotech, PM640 Serotec, HIP1 Pharmigen, AN51 DAKO), and polyclonal antibody against the N-terminus of GPIbα (Sc-7071, Santa Cruz).
# washed platelets = assay: Ristocetin-induced agglutination of washed platelets (scFv); type: cell-based, human; conditions: for % agglutination: 100% = ristocetin treatment; for % inhibition: ristocetin-induced agglutination
# Protocol: Aggregation is determined in PRP due to the presence of thrombotic agents, while agglutination is determined in washed platelets. The effect of Y1 (scFv) on agglutination of washed platelets was tested at various concentrations of Y1. Platelets were pre-incubated with Y1 scFv, Y17 scFv, Y16-scFv, or a control TM-1 scFv for 4 min at 37° C. before being exposed to ristocetin, an inducer of platelet agglutination and aggregation.
# Platelet concentrate in acid-citrate-dextrose (ACD) was obtained from a blood bank, platelets were isolated, washed once in buffer containing ACD and saline in a ratio of 1:7. The platelets were centrifuged at 800 g for 10 min after each wash and were resuspended in Tyrodes solution (2 mM MgCl2, 137 mM NaCl, 2.68 mM KCl, 3 mM NaH2PO4, 0.1% glucose, 5 mM Hepes and 0.35% albumin, pH 7.35) and count the number of cells.
# For platelet aggregation studies, platelet rich plasma (PRP) and washed platelets were stirred at 500 rpm at 37° C. in whole blood Lumiaggregometer (Chronolog, Havertown, Pa.). The difference in light transmission through the platelet suspension and suspending medium was taken as 100% aggregation. The effect of Y1 on platelet aggregation was evaluated by addition of different concentration of Y1 before the addition of agonist, and the effect was recorded for four minutes.
# The effect of Y17-scFv on vWF-dependent agglutination of platelets was tested at different concentrations of Y17.
# [2] = tested on: RP-HPLC KG-1 membrane fraction; assay: Western blot with Y1 on SDS-PAGE reducing gels, KG-1 membrane fraction after enzyme treatment; type: binding, human; conditions: O-Sialo glycoprotein endopeptidase, 30′ at 37° C.
# Description: (§3) Y1 ligand was further characterized using enzymatic treatments with proteases, glycanases, and […]; Western blotting with Y1, anti-CD42 antibodies, anti-CD162 antibodies and 181, immunoprecipitation using Y1 and anti-CD162 antibodies; FACS analysis using Y1 anti-CD162 antibodies; and sequencing.
# (§4) The table below summarizes the biochemical experiments preformed to characterize and localize the Y1 binding site on KG-1 cells.
# (§5) The nitrocellulose membrane was blocked using 5% skim milk for one hour at room temperature. The membrane was then washed 3 times for 5 minutes each with 0.05% Tween 20 in PBS at room temperature. The membrane was incubated with 5 μg/ml Y1-biotin (or 181-biotin) in 2% skim milk in PBS for one hour at room temperature. The membrane was then washed 3 times for 5 minutes each with cold 0.05% Tween 20 in PBS in the cold room (about 4 to about 10° C.). The membrane was then incubated in the cold room with a 1:1000 dilution of SAV-HRP (streptavidin-HRP) (at a final concentration of […]) in 2% skim milk, 0.05% Tween. The dilution was carried out at room temperature (about 25° C.), then the diluted SAV-HRP was cooled on ice for 10-15 minutes before use. The incubation was carried out for 1 hour with gentle shaking. After the incubation with SAV-HRP, the membrane was washed, as above. […]
# [3] = biological target: T2, recombinant bacterial derived glycocalicin (Homo sapiens, UniProt P07359); assay: Western blot on E. coli recombinant glycocalicin; type: binding; conditions: E. coli cell lysates, IPTG induced
# T2 construct: glycocalicin (GC, amino acid 1 to amino acid 493 of GPIbα); made in house; host or cells: E. coli BL21 DE3, total cell lysate
# Protocol: as §1, §2
# Leukemia Cells = assay: FACS of leukemia samples: anti-CD162 versus Y1; type: binding, human; conditions: 12 patient samples
# Protocol: Analysis of binding of scFv Y1 antibodies and anti-CD162 antibodies to diseased cells also illustrates that scFv Y1 has binding characteristics different from those of anti-CD162 antibodies. […] (Table F). Y1 binds to the leukemic cells in 10 of 12 samples. In contrast, anti-CD162 bound only 5 out of 12 samples. […] Thus, it may be concluded that, in leukemic cells, scFv Y1 binds to a ligand other than that recognized by anti-CD162.
# Samples provided from hospitals. Patients sample 30 μl/tube. Add 5 μl /tube of CD33-APC (for AML) or CD19-APC (for B-CLL) or CD38-APC (for Multiple Myeloma). Add 5 μl/tube of CD45-PerCp and 5 μl of scFv-Y1 or control scFv-N31 or CD162-PE (KPL1). Incubate tubes 30 minutes at 4° C. with low shaking. Wash by adding 2 ml PBS and spin 5 minutes at 1200 rpm. Discard supernatant.
# For a one step assay continue with the lysis step:
# Add 500 μl BD Lysine solution diluted 1:10 with ddH2O (300 μl to patient sample). Vortex at high speed and incubate 12 minutes at 4° C. Wash as above. Discard supernatant. And add 500 μl PBS. The samples are read in the FACS using blood sample acquisition setup according to international standards.
# For two or more assays: working buffer is PBS+1% BSA+0.05% sodium azide. Incubations and wash as above.
# Lysis of the red blood cells is the final step in the assay, followed by resuspension with 500 μl PBS.
# Glycocalicin (GC) = biological target: T3, Glycocalicin (GC) (Homo sapiens, UniProt P07359); assay: Western blot with Y1 on SDS-PAGE reducing gels, glycocalicin after enzyme treatment; type: binding; conditions: O-Sialo glycoprotein endopeptidase, 30′ at 37° C.
# T3 construct: glycocalicin (soluble, extracellular fragment of GPIbα); from tissue; host or cells: human platelets
# Description: as §3, §4, §5
# KG-1 cells = assay: Binding competition experiments on KG-1 cells (monomer, dimer, Y1 IgG); parameters: species or system human
# Description: To compare the binding of the scFv monomer (also referred to as CONY1) with the Y1 dimer, binding competition experiments were done in vitro on KG-1 cells. In addition, these experiments also compared the binding of the full Y1 IgG to the scFv Y1 monomers. To perform this study, a Y1 IgG was labeled with biotin.
molecule,measurement,setting,value
"Y1 scFv: fully human scFv clone binding platelets and AML cells; SEQ ID NO:25, heavy chain CDR3 SEQ ID NO:8 (protein, listed as Homo sapiens) scFv: MKYLLPTAAAGLLLLAAQPAMAEVQLVESGGGVVRPGGSLRLSCAASGFTFDDYGMSWVRQAPGKGLEWVSGINWNGGSTGYADSVKGRFTISRDNAKNSLYLQMNSLRAEDTAVYYCARMRAPVIWGQGTLVTVSRGGGGSGGGGSGGGGSSELTQDPAVSVALGQTVRITCQGDSLRSYYASWYQQKPGQAPVLVIYGKNNRPSGIPDRFSGSSSGNTASLTITGAQAEDEADYYCNSRDSSGNHVVFGGGTKLTVLGAAAEQKLISEEDLNGAA",recognition in Western blot,[1],recognized
same,% agglutination,washed platelets; scFv 4 μg/ml,92%
same,% inhibition,washed platelets; scFv 4 μg/ml,8%
same,% inhibition,"washed platelets; scFv 4 μg/ml, listed as Y1",No inhibition
same,% agglutination,washed platelets; scFv 12.5 μg/ml,67%
same,% inhibition,washed platelets; scFv 12.5 μg/ml,33%
same,% inhibition,"washed platelets; scFv 12.5 μg/ml, listed as Y1",only partial inhibition
same,% agglutination,washed platelets; scFv 25 μg/ml,23%
same,Reactivity with Y1,[2],Reactivity
same,recognition in Western blot,[3],did not recognize
same,samples in which the antibody binds the leukemic cells,Leukemia Cells,10 of 12
same,Reactivity with Y1,Glycocalicin (GC),Enhanced
same,amount bound to KG-1 cells to the same extent,"KG-1 cells; FITC-labeled, without serum",1 µg
same,competition with Y1 IgG-Biotin for binding to KG-1 cells,"KG-1 cells; Y1 IgG-Biotin 50 ng, Y1 scFvs 5 μg and 10 μg",partially competed
